Binding result, Kd and IC50 data for 19 molecules are collected here from patent publication US20230174616A1 (UNIVERSITY OF SOUTHERN CALIFORNIA, published 2023).

The labels stand for the following.
T1: hPD-L2* (recombinant glycosylated human PD-L2 ectodomain, L20-T220, expressed in Expi293F cells) (human, UniProt Q9BQ51 20-220, glycosylated; Avi tag biotinylated in vitro with BirA)
T1 construct: range 20-220
T1 sequence: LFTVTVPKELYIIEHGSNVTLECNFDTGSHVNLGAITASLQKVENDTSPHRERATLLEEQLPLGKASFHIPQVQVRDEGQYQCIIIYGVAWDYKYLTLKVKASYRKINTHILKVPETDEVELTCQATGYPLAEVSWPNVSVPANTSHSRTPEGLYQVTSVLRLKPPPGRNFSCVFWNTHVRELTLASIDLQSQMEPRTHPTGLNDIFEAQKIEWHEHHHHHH

B1: SPAM peptide (synthetic, MPIFLDHILNKFWILHYASG-Pra) (peptide)
peptide: MPIFLDHILNKFWILHYASG[Pra]-NH2
B2: [35S]-labeled SPAM peptide (in vitro translated) (peptide)
peptide: M(35S)PIFLDHILNKFWILHYAGSGSSGHHHHHHSS
notes: Translated in reticulocyte lysate; also called [35S]-SPAM; radiolabeled SPAM peptide
B3: mPD-1 (extracellular domain of mouse PD-1, L15 to S157, C83S, HA tag and His tag, expressed in E. coli) (receptor)
chain: MALEVPNGPWRSLTFYPAWLTVSEGANATFTCSLSNWSEDLMLNWNRLSPSNQTEKQAAFSNGLSQPVQDARFQIIQLPNRHDFHMNILDTRRNDSGIYLCGAISLHPKAKIEESPGAELVVTERILETSTRYPSGGYPYDVPDYALEHHHHHH
notes: also called HA-tagged mPD-1; murine variant of PD-1
B4: SPAM A18 variant (glycine substituted for alanine at position 18) (peptide)
peptide: [Met(35S)]PIFLDHILNKFWILHYGGSGSSGHHHHHHSS
B5: SPAM N10A variant (peptide)
peptide: M(35S)PIFLDHILAKFWILHYAGSGSSGHHHHHHSS
notes: in vitro translated alanine-scan variant
B6: SPAM D6A variant (peptide)
peptide: [Met(35S)]PIFLAHILNKFWILHYAGSGSSGHHHHHHSS
notes: as for B5
B7: SPAM H7A variant (peptide)
peptide: [Met(35S)]PIFLDAILNKFWILHYAGSGSSGHHHHHHSS
notes: as for B5
B8: SPAM K11A variant (peptide)
peptide: M(35S)PIFLDHILNAFWILHYAGSGSSGHHHHHHSS
notes: as for B5
B9: SPAM F4A variant (peptide)
peptide: [Met(35S)]PIALDHILNKFWILHYAGSGSSGHHHHHHSS
notes: as for B5
B10: SPAM I8A variant (peptide)
peptide: M(35S)PIFLDHALNKFWILHYAGSGSSGHHHHHHSS
notes: as for B5
B11: SPAM P2A variant (peptide)
peptide: M(35S)AIFLDHILNKFWILHYAGSGSSGHHHHHHSS
notes: as for B5
B12: SPAM L9A variant (peptide)
peptide: M(35S)PIFLDHIANKFWILHYAGSGSSGHHHHHHSS
notes: as for B5
B13: SPAM F12A variant (peptide)
peptide: [Met(35S)]PIFLDHILNKAWILHYAGSGSSGHHHHHHSS
notes: as for B5
B14: SPAM W13A variant (peptide)
peptide: M(35S)PIFLDHILNKFAILHYAGSGSSGHHHHHHSS
notes: as for B5
B15: SPAM L15A variant (peptide)
peptide: M(35S)PIFLDHILNKFWIAHYAGSGSSGHHHHHHSS
notes: as for B5
B16: SPAM H16A variant (peptide)
peptide: [Met(35S)]PIFLDHILNKFWILAYAGSGSSGHHHHHHSS
notes: as for B5
B17: SPAM I14A variant (peptide)
peptide: [Met(35S)]PIFLDHILNKFWALHYAGSGSSGHHHHHHSS
notes: as for B5
B18: SPAM L5A variant (peptide)
peptide: M(35S)PIFADHILNKFWILHYAGSGSSGHHHHHHSS
notes: as for B5
B19: SPAM I3A variant (peptide)
peptide: M(35S)PAFLDHILNKFWILHYAGSGSSGHHHHHHSS
notes: as for B5

*1 amine or outer side, *2 acyl side, *3 side chain or, on linkers, in order; H or OH if unused. Where no end group is shown, it is not given here. [ ]: non-standard residue; d: D form. Met(35S) = [35S]-methionine label, C[35S]CC[C@H](N[*:1])C(=O)[*:2]; 35S = [35S]-methionine radiolabel; Pra = C#CC[C@H](N)C(=O)O

For one assay, the target named is T2, mPD-L1 expressed on CHO cells (CHO-mPD-L1) (mouse, UniProt Q9EP73 19-290).
T2 construct: whole, on cells; The construct in the CHO cells is not described
T2 sequence (Q9EP73 19-290): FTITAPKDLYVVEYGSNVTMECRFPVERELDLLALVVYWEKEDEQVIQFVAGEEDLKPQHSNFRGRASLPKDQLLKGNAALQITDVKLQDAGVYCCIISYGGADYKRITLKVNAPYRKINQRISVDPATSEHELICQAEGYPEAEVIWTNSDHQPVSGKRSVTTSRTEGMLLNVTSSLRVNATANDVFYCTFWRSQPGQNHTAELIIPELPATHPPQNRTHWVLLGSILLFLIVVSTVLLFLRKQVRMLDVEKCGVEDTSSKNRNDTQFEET
As to the kind of experiment: flow cytometry competition on CHO-mPD-L1 cells: pre-incubation with the peptide, then Fluorescein-16373; % of median fluorescence intensity [cont.) D]. The source says:
Bars represent means±SD, n=3. One-way ANOVA with Dunnett's multiple comparison's test p value <0.05 (*), <0.01 (**), <0.001 (***).
Cells were then washed three times with cold serum free DMEM. Cells were subsequently processed by flow cytometry with a BD FACSCalibur system using the FL1 channel. FlowJo v10.1 was used to gate to the major population and median FL1 fluorescence reported.
For B1, the binding result is on record as “no binding (tested: 10 µM)”.

A further assay deals with mPD-L1 (extracellular domain of mouse PD-L1, A18 to H239, expressed in E. coli, biotinylated) (mouse, biotin on the epsilon-amino group of the Avi tag lysine). Put plainly: radioactive pull-down of [35S]-labeled SPAM on immobilized target, normalized to hPD-L1.
Sequence of mPD-L1 (extracellular domain of mouse PD-L1, A18 to H239, expressed in E. coli, biotinylated) (mouse, biotin on the epsilon-amino group of the Avi tag lysine) (chain, as listed by the source limits assumed): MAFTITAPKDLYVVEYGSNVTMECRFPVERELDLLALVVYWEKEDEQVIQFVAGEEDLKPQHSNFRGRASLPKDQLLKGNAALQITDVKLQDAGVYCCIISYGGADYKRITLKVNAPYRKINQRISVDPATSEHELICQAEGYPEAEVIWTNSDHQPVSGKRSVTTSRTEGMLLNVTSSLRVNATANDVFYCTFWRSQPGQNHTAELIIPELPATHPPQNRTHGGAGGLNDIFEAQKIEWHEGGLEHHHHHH
On to B2, for which the binding result is on record as “no binding”.

Another assay addresses T3, biotinylated hPD-L1 (extracellular domain of human PD-L1, Ala18 to Thr239, expressed in E. coli, … (human, biotin on the epsilon-amino group of the Avi tag lysine (BirA))).
T3 construct: also called recombinant hPD-L1; non-glycosylated hPD-L1
As to the kind of experiment: SPR (Biacore T-100), biotinylated hPD-L1 on SA chip, mPD-1 0.15-29 uM as analyte, 25 C, one-site saturation fit. The method, then:
SPR analysis was performed on a Biacore T-100 at the USC Nanobiophysics core. […] The response values were fit to a one-site saturation binding model in GraphPad Prism to obtain an equilibrium binding constant.
Molecule B3 had a Kd of 3.2 µM.

For a further assay, the target named is T3, biotinylated hPD-L1 (extracellular …). As to the kind of experiment: radioactive pull-down of [35S]-labeled variant on immobilized hPD-L1, normalized to SPAM. The procedure:
(§1) The conservation level for each doped residue in the X₁₇ library was obtained from next-generation sequencing data. […] FIG. 3 discloses SEQ ID NO: 180. […] Each measurement was carried out in triplicate and error bars show the standard deviation of the mean. (Students t-test; p value <0.05 (*), <0.01 (**), <0.005 (***)<0.001 (****))
[³⁵S]-labeled peptides were translated as described above by including 2 μCi labeled methionine (Perkin Elmer) per 10 pmol of template in the translation reaction. Each peptide was tested with a […] (for X₉-library derived peptides) (SEQ ID NO: 11) or a […] (for X17-library derived peptides) (SEQ ID NO: 12) C-terminal sequence. […] The supernatant was removed and was counted. The beads were subsequently washed three times with 1 mL of blocking buffer and the washes were also counted. Finally, the beads were resuspended in 1 mL of blocking buffer and were counted separately. The ratio of the counts remaining on the beads to the total counts added to the binding reaction (the sum of the counts for supernatant, washes, and beads) was calculated to determine the percent bound.
Take B4: the binding result is “no binding”.

The target is the same in another assay. Put plainly: ELISA/IP: 100 nM biotinylated hPD-L1 on streptavidin magnetic beads, SPAM 0.1, 1, 10 uM; competitor 100 nM HA-tagged mPD-1 detected with anti-HA-HRP. The procedure: For ELISA/IP assays, 20 μL of MyOne™ Streptavidin T1 magnetic beads Dynabeads™ (Thermo Fisher Scientific) were loaded with 100 nM biotinylated hPD-L1 in assay buffer (20 mM HEPES-KOH pH 7.5, 150 mM NaCl, 0.2% (v/v) Tween-20, 1 mg/mL BSA and 50 μg/mL tRNA) at 4° C. […] The samples were then washed and incubated with a 1:5,000 dilution of HRP conjugated anti-HA antibody (Pierce HA Antibody, Rockford. Ill., USA) for 1 h at 4° C. The beads were washed again and developed with TMB Substrate Kit (Thermo Scientific) for 30 minutes and the reactions stopped by adding 100 μL of […] sulfuric acid.
For the molecule B1, the IC50 was ~1.1 µM.

For the next assay the target is unchanged. Put plainly: radioactive pull-down of [35S]-labeled alanine variant on immobilized hPD-L1, normalized to SPAM. The procedure: as §1
[³⁵S]-labeled peptides were translated as described above by including 2 μCi labeled methionine (Perkin Elmer) per 10 pmol of template in the translation reaction. Each peptide was tested with a […] (for X₉-library derived peptides) (SEQ ID NO: 11) or a […] (for X17-library derived peptides) (SEQ ID NO: 12) C-terminal sequence. Binding assays using [35S]-labeled peptide-RNA fusions were similarly performed on hPD-L1 immobilized beads using 75 pmol hPD-L1 immobilized on streptavidin or neutravidin agarose beads (Thermo Fisher scientific) in blocking buffer (20 mM HEPES-KOH pH 7.5, 150 mM NaCl, 0.2% (v/v) Tween-20, 1 mg/mL BSA, 50 μg/mL tRNA and 0.02 mM biotin) at 4° C. for 1 h. The supernatant was removed and was counted.
Take B5: the binding result is “no binding”.
On the same count and under the same terms, the entry for B6 is “no binding”; for B7 it is “no binding”.
As to B8, the binding result is reported as “no binding”.
Regarding B9, the binding result is “binds”.
With B10, the binding result is reported as “binds”.
Regarding B11, the binding result is given as “binds”.
Take B12: the binding result is recorded as “binds”.
Same read-out and setting: the entry for B13 is “no binding”; for B14 it is “no binding”.
On the same count and under the same terms, the entry for B15 is “no binding”; for B16 it is “no binding”; for B17 it is “no binding”.
Still for that read-out and setting: the result for B18 reads “binds”.
Turning to B19, the binding result is given as “binds”.

A further assay has as its target T1, hPD-L2* (recombinant glycosylated human …). Put plainly: radioactive pull-down of [35S]-labeled SPAM on immobilized target, normalized to hPD-L1 [cont.) D].
For B2, the binding result is listed as “no binding”.
